Results taken from paper PMC3673099.

Experiments:
[1] = target: CyPet-(pre-SUMO2)-YPet (human) (UniProt P61956)
[2] = target: CyPet-(pre-SUMO3)-YPet (human) (UniProt P55854)
[3] = target: CyPet-(pre-SUMO1)-YPet (human) (UniProt P63165)
Chain of UniProt P63165 (P63165 1-97): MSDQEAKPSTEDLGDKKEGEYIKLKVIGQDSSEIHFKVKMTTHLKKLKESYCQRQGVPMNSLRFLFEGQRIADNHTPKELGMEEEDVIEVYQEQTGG

Chain of UniProt P61956 (P61956 whole entry): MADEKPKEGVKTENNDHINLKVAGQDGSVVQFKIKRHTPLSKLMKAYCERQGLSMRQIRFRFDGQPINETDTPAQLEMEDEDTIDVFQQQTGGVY
Chain of UniProt P55854 (P55854 1-92): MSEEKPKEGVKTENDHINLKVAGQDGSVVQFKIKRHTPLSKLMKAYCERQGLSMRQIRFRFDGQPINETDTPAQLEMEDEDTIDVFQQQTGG

- Km of the SENP1 catalytic domain for CyPet-(pre-SUMO2)-YPet, FRET-based protease assay, Michaelis-Menten fit, real-time detection (internal calibration) [1]: 0.17 µM
- Km of the SENP1 catalytic domain for CyPet-(pre-SUMO2)-YPet, FRET-based protease assay, Michaelis-Menten fit, standard curve analysis [1]: 0.17 µM
- Km of the SENP1 catalytic domain for CyPet-(pre-SUMO3)-YPet, FRET-based protease assay, Michaelis-Menten fit, real-time detection (internal calibration) [2]: 1.99 µM
- Km of the SENP1 catalytic domain for CyPet-(pre-SUMO3)-YPet, FRET-based protease assay, Michaelis-Menten fit, standard curve analysis [2]: 3.75 µM
- Km of the SENP1 catalytic domain for CyPet-(pre-SUMO1)-YPet, FRET-based protease assay, Michaelis-Menten fit, real-time detection (internal calibration) [3]: 0.14 µM
- Km of the SENP1 catalytic domain for CyPet-(pre-SUMO1)-YPet, FRET-based protease assay, Michaelis-Menten fit, standard curve analysis [3]: 0.18 µM
Substance: catalytic domain of SENP1 (enzyme)
